Results: patent US20240376221A1

Columns and labels:
[1] = target: recombinant cynomolgus monkey OX40 (Acro Biosystems, cat. no. OXO-C5220) (cynomolgus monkey); experiment: BLI, Ab on AHC sensor, OX40 analyte
[2] = target: recombinant human OX40 (Acro Biosystems, cat. no. OXO-H5224) (human) (UniProt P43489); experiment: BLI, Ab on AHC sensor, OX40 analyte
[3] = target: human OX40, cell surface-expressed (human) (UniProt P43489); experiment: flow cytometry, activated CD4+ T cells, donor 1
[4] = target: human OX40, cell surface-expressed (human) (UniProt P43489); experiment: flow cytometry, activated CD4+ T cells, donor 2
[5] = target: human OX40, cell surface-expressed (human) (UniProt P43489); experiment: flow cytometry, activated CD4+ T cells, donor 3
[6] = target: human OX40, cell surface-expressed (human) (UniProt P43489); experiment: flow cytometry, activated CD8+ T cells, donor 1
[7] = target: human OX40, cell surface-expressed (human) (UniProt P43489); experiment: flow cytometry, activated CD8+ T cells, donor 2
[8] = target: human OX40, cell surface-expressed (human) (UniProt P43489); experiment: flow cytometry, activated CD8+ T cells, donor 3
[9] = target: human OX40, cell surface-expressed (human) (UniProt P43489); experiment: flow cytometry, HEK293F cells with human OX40
[10] = target: human OX40, cell surface-expressed (human) (UniProt P43489); experiment: flow cytometry, activated CD4+ T cells, mean of 3 donors
[11] = target: human OX40, cell surface-expressed (human) (UniProt P43489); experiment: flow cytometry, activated CD8+ T cells, mean of 3 donors
[12] = target: human OX40, cell surface-expressed (human) (UniProt P43489); experiment: flow cytometry, ExpiCHO-S cells with human OX40
[13] = target: recombinant human OX40 (Acro Biosystems, cat. no. OXO-H5224) (human) (UniProt P43489); experiment: BLI cross-block; competitor (immobilized 1st Ab): IgG1-CD134-003
[14] = target: recombinant human OX40 (Acro Biosystems, cat. no. OXO-H5224) (human) (UniProt P43489); experiment: BLI cross-block; competitor (immobilized 1st Ab): IgG1-CD134-007
[15] = target: recombinant human OX40 (Acro Biosystems, cat. no. OXO-H5224) (human) (UniProt P43489); experiment: BLI cross-block; competitor (immobilized 1st Ab): IgG1-CD134-012
[16] = target: recombinant human OX40 (Acro Biosystems, cat. no. OXO-H5224) (human) (UniProt P43489); experiment: BLI cross-block; competitor (immobilized 1st Ab): IgG1-CD134-SF2
[17] = target: recombinant human OX40 (Acro Biosystems, cat. no. OXO-H5224) (human) (UniProt P43489); experiment: BLI cross-block; competitor (immobilized 1st Ab): IgG1-CD134-11D4
[18] = target: recombinant human OX40 (Acro Biosystems, cat. no. OXO-H5224) (human) (UniProt P43489); experiment: BLI cross-block; competitor (immobilized 1st Ab): IgG1-CD134-h3C8
[19] = target: recombinant human OX40 (Acro Biosystems, cat. no. OXO-H5224) (human) (UniProt P43489); experiment: BLI cross-block; competitor (immobilized 1st Ab): IgG1-CD134-A4453
[20] = target: recombinant human OX40 (Acro Biosystems, cat. no. OXO-H5224) (human) (UniProt P43489); experiment: BLI cross-block; competitor (immobilized 1st Ab): IgG1-CD134-Hu106
[21] = target: cynomolgus monkey OX40, cell surface-expressed (cynomolgus monkey); experiment: flow cytometry, HEK293F cells with cynomolgus monkey OX40
Chain of cynomolgus monkey OX40, cell surface-expressed (cynomolgus monkey) (P43489 other isoform, or with tags, fused parts or gaps limits assumed): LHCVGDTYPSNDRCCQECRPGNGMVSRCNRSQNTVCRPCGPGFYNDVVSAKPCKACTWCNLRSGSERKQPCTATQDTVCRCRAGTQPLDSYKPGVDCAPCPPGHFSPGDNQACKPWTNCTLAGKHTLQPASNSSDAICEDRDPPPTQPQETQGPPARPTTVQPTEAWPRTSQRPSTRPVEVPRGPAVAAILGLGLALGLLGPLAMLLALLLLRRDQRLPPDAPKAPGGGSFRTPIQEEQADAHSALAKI

[22] = target: recombinant human OX40 (Acro Biosystems, cat. no. OXO-H5224) (human) (UniProt P43489); experiment: BLI cross-block; competitor (immobilized 1st Ab): IgG1-CD134-GBR830
[23] = target: recombinant human OX40 (Acro Biosystems, cat. no. OXO-H5224) (human) (UniProt P43489); experiment: BLI cross-block; competitor (immobilized 1st Ab): IgG1-CD134-IBI101
[24] = target: recombinant human OX40 (Acro Biosystems, cat. no. OXO-H5224) (human) (UniProt P43489); experiment: BLI cross-block; competitor (immobilized 1st Ab): IgG1-CD134-RG7888
[25] = target: recombinant human OX40 (Acro Biosystems, cat. no. OXO-H5224) (human) (UniProt P43489); experiment: BLI cross-block; competitor (immobilized 1st Ab): IgG1-CD134-ABBV368
[26] = target: recombinant human OX40 (Acro Biosystems, cat. no. OXO-H5224) (human) (UniProt P43489); experiment: BLI cross-block; competitor (immobilized 1st Ab): IgG1-CD134-49B4-RRE
[27] = target: recombinant human OX40 (Acro Biosystems, cat. no. OXO-H5224) (human) (UniProt P43489); experiment: BLI cross-block; competitor (immobilized 1st Ab): IgG1-CD134-MEDI0562
[28] = target: recombinant human OX40 (Acro Biosystems, cat. no. OXO-H5224) (human) (UniProt P43489); experiment: BLI cross-block; competitor (immobilized 1st Ab): IgG1-CD134-INCAGN1949
[29] = target: recombinant human OX40 (Acro Biosystems, cat. no. OXO-H5224) (human) (UniProt P43489); experiment: BLI cross-block; competitor (immobilized 1st Ab): IgG1-CD134-003-HC6LC2-RR
[30] = target: human OX40 with mouse CRD4 (human with mouse CRD4) (UniProt P43489); experiment: flow cytometry, ExpiCHO-S cells with human OX40 carrying mouse CRD4
Chain of human OX40 with mouse CRD4 (human with mouse CRD4) (P43489 other isoform, or with tags, fused parts or gaps limits assumed): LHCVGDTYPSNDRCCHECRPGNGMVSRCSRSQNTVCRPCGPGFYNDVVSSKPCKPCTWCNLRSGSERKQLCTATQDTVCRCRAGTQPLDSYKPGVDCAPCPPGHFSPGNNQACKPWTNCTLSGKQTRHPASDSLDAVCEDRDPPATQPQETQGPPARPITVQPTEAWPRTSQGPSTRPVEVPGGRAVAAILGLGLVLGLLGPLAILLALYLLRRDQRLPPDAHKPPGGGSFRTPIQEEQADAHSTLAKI

[31] = target: human OX40 with mouse CRD1 (human with mouse CRD1) (UniProt P43489); experiment: flow cytometry, ExpiCHO-S cells with human OX40 carrying mouse CRD1
Chain of human OX40 with mouse CRD1 (human with mouse CRD1) (P43489 other isoform, or with tags, fused parts or gaps limits assumed): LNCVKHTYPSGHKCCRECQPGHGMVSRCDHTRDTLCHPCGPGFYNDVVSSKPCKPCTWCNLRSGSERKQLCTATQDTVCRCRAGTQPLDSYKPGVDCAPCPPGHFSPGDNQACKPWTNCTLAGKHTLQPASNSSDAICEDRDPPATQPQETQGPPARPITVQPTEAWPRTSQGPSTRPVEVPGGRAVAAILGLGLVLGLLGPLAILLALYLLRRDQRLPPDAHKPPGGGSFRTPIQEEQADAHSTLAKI

[32] = target: human OX40 with mouse CRD2 (human with mouse CRD2) (UniProt P43489); experiment: flow cytometry, ExpiCHO-S cells with human OX40 carrying mouse CRD2
Chain of human OX40 with mouse CRD2 (human with mouse CRD2) (P43489 other isoform, or with tags, fused parts or gaps limits assumed): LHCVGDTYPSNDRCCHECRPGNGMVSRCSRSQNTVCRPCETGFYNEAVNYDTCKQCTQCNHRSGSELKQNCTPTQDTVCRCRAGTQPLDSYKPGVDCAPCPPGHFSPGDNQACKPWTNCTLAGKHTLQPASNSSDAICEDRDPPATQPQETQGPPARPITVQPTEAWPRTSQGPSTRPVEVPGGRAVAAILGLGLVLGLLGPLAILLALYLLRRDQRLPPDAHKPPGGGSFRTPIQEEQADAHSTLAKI

Chain of human OX40, cell surface-expressed (human) (P43489 29-277): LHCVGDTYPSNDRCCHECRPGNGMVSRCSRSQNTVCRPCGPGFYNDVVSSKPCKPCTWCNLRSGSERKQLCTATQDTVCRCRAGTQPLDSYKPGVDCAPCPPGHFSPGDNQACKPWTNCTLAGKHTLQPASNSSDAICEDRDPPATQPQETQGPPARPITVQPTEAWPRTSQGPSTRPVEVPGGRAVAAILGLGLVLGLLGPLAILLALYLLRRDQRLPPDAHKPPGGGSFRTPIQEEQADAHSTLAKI
Chain of recombinant cynomolgus monkey OX40 (Acro Biosystems, cat. no. OXO-C5220) (cynomolgus monkey) (P43489 other isoform, or with tags, fused parts or gaps limits assumed): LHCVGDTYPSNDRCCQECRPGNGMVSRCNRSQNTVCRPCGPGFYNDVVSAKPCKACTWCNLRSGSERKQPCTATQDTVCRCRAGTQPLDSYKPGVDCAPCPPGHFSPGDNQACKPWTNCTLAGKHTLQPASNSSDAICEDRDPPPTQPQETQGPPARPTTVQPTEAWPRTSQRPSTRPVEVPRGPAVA
Chain of recombinant human OX40 (Acro Biosystems, cat. no. OXO-H5224) (human) (P43489 29-216 limits assumed): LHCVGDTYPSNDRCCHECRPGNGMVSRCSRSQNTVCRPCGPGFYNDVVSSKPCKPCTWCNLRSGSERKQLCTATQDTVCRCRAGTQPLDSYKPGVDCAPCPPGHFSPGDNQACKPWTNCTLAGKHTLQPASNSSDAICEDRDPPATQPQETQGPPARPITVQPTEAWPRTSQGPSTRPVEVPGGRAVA

B1: IgG1-CD134-RG7888 (antibody, INN chains, looked up, V domains shown)
VH: EVQLVQSGAEVKKPGASVKVSCKASGYTFTDSYMSWVRQAPGQGLEWIGDMYPDNGDSSYNQKFRERVTITRDTSTSTAYLELSSLRSEDTAVYYCVLAPRWYFSVWGQGTLVTVSS
VL: DIQMTQSPSSLSASVGDRVTITCRASQDISNYLNWYQQKPGKAPKLLIYYTSRLRSGVPSRFSGSGSGTDFTLTISSLQPEDFATYYCQQGHTLPPTFGQGTKVEIK
modifications: IgG1
Kd [1]: 610 pM
koff [1]: 0.00014 s⁻¹
kon [1]: 240000 M⁻¹ s⁻¹
Kd [2]: 230 pM
koff [2]: 8.4e-05 s⁻¹
kon [2]: 360000 M⁻¹ s⁻¹
EC50 [3]: 0.0453 µg/mL
EC50 [4]: 0.0292 µg/mL
EC50 [5]: 0.0316 µg/mL
EC50 [6]: 0.0627 µg/mL
EC50 [7]: 0.0332 µg/mL
EC50 [8]: 0.0393 µg/mL
EC50 (read off the curve) [9]: 0.05 µg/mL
EC50 [10]: 0.0354 µg/mL
EC50 [11]: 0.0451 µg/mL
EC50 (read off the curve) [12]: 0.007 µg/mL
corrected association response [13]: 0.66 nm
corrected association response [14]: 0.47 nm
corrected association response [15]: 0.54 nm
corrected association response [16]: 0.01 nm
corrected association response [17]: 0.11 nm
corrected association response [18]: 0.41 nm
corrected association response [19]: 0.47 nm
corrected association response [20]: 0.1 nm
EC50 (read off the curve) [21]: 0.05 µg/mL
corrected association response [22]: 0.26 nm
corrected association response [23]: 0.23 nm
corrected association response [24]: 0.02 nm
corrected association response [25]: 0.01 nm
corrected association response [26]: 0.02 nm
corrected association response [27]: 0.02 nm
corrected association response [28]: 0.02 nm
corrected association response [29]: 1.38 nm
EC50 (read off the curve) [30]: 0.01 µg/mL
EC50 (read off the curve) [31]: 0.02 µg/mL
EC50 (read off the curve) [32]: 0.01 µg/mL
